Results on 8 molecules are retold here after paper PMC2715101, “Dimerization of Translationally Controlled Tumor Protein Is Essential For Its Cytokine-Like Activity” (PLoS ONE, 2009).

For series [1], the target named is Del-N35TCTP (residues 35-172) (rat) (UniProt P63029). Briefly: non-reducing SDS-PAGE; proteins completely reduced with 20 mM DTT, transferred to 50 mM Tris pH 7.5, 1 mM EDTA, then oxidized with 0.1, 1 or 10 mM H2O2.
Series [2] shares this target. Kind of series: cross-linking; sulfhydryl crosslinkers BMOE (five-fold molar excess, 2 h) or BM(PEO)3 (five-fold molar excess, 1 h), room temperature, proteins first reduced with 20 mM DTT; each protein alone and their 1/2:1/2 molar mixture; reducing SDS-PAGE.
The target is the same in series [3].
The target is the same in series [4]. Briefly: SEC; Superdex 200 HR 10/30, 50 mM sodium phosphate pH 7.0, 150 mM NaCl, calibrated with molecular size markers.
For series [5] the target is unchanged. Briefly: non-reducing SDS-PAGE; purified proteins boiled with or without β-ME, 15% gel, coomassie brilliant blue; dimer by intermolecular disulfide bond.
The target of series [6] is Del-N35TCTP-C172S (rat) (UniProt P63029). Briefly: SEC; Superdex 200 HR 10/30, 50 mM sodium phosphate pH 7.0, 150 mM NaCl, calibrated with molecular size markers. (In general: Size exclusion chromatography separates by hydrodynamic size, large species first.)
Series [7] shares this target.
The target of series [8] is Fc-fused human recombinant TCTP (Fc-HrTCTP) (human | rabbit) (UniProt P13693). Kind of series: native gel or EMSA; Fc fusion proteins on a native gel, apparent molecular weights by a molecular size marker.
The target of series [9] is TCTP in bronchoalveolar lavage fluid (BALF) of mice with airway inflammation (mouse (endogenous in BALB/c BALF)) (UniProt P63028). Briefly: non-reducing SDS-PAGE and Western blotting; BALF from OVA-OVA and N11TCTP-N11TCTP mice. In general terms: A western blot detects proteins with antibodies after separation by electrophoresis.
The target of series [10] is rabbit Fc protein (Fc) (rabbit). Briefly: native gel or EMSA; Fc fusion proteins on a native gel, apparent molecular weights by a molecular size marker. Background: A gel shift assay detects complexes by their altered migration in electrophoresis.
Series [11] concerns the molecule itself. Briefly: non-reducing SDS-PAGE; purified proteins boiled with or without β-ME, 15% gel, coomassie brilliant blue; dimer by intermolecular disulfide bond.
Series [12] concerns the molecule itself. Briefly: cell-based or functional assay.

Where a chain is given by its changes, count along the chain named. Numbers in names are those of the source.

For the molecule “Del-N35TCTP (residues 35-172) (from UniProt P63029 35-172) (domain or fragment)”, the stoichiometry N in series [1], in [2], in series [4] and in series [5] was 2 throughout. Further, the IL-8 secretion from BEAS-2B cells by BM(PEO)3-treated DTT-pretreated Del-N35TCTP, percent of DTT-untreated Del-N35TCTP (% of DTT-untreated Del-N35TCTP) in [3] worked out at 122. Further, the IL-8 secretion from BEAS-2B cells by BMOE-treated DTT-pretreated Del-N35TCTP, percent of DTT-untreated Del-N35TCTP (% of DTT-untreated Del-N35TCTP) in series [3] is 108. Moreover, the IL-8 secretion from BEAS-2B cells by DTT-treated Del-N35TCTP, percent of DTT-untreated Del-N35TCTP (% of DTT-untreated Del-N35TCTP) in series [3] is 71.7.
“Del-N35TCTP-C172S (from UniProt P63029 35-172) (domain or fragment)”: the stoichiometry N in series [6] is 2. The molecule also came in with an IL-8 secretion from BEAS-2B cells, 5 µm/ml protein, 24 h, percent of wild-type (Del-N35TCTP) (% of wild-type) in [7] of 36.
As for “Fc-fused human recombinant TCTP (Fc-HrTCTP) (from UniProt P13693 1-172) (Fc fusion)”, the stoichiometry N in series [8] stood at 2.
On to “TCTP in bronchoalveolar lavage fluid (BALF) of mice with airway inflammation (from UniProt P63028 1-172) (natural protein)”, for which, in series [9], the stoichiometry N stood at 2.
With “rabbit Fc protein (Fc) (domain or fragment)”, the stoichiometry N in series [10] came to 2.

B1: Del-N11TCTP-C172S (domain or fragment, rat, UniProt P63029 11-172, looked up)
chain: DELFSDIYKIREIADGLCLEVEGKMVSRTEGAIDDSLIGGNASAEGPEGEGTESTVVTGVDIVMNHHLQETSFTKEAYKKYIKDYMKSLKGKLEEQKPERVKPFMTGAAEQIKHILANFNNYQFFIGENMNPDGMVALLDYREDGVTPFMIFFKDGLEMEKS
With B1, the “stoichiometry N” value in series [11] was 2. Further, the “IL-8 secretion from BEAS-2B cells, 5 µm/ml protein, 24 h, percent of wild-type (Del-N11TCTP)” value in series [12] is 52 % of wild-type.

B2: Del-N11TCTP-C28S (domain or fragment, rat, UniProt P63029 11-172, looked up)
chain: B1 chain with C18S, S162C
notes: No stop codon in the reverse primer
Turning to B2, the “stoichiometry N” value in series [11] was 2.

B3: Del-N11TCTP (residues 11-172) (domain or fragment, rat, UniProt P63029 11-172, looked up)
chain: B1 chain with S162C
notes: No stop codon in the reverse primer; also called Del-N11HRF
B3: the “stoichiometry N” value in series [11] came out at 2.

The term stoichiometry N denotes a count of units in the complex or per binding partner.
